The test system of one data set is corticosterone (CORT). Kind of data set: Serum corticosterone (CORT) under repeated footshock stress. It is filed as in vivo. The conditions noted are these: single administration 45 μg/mouse, C57Bl6 mice. Here is the method:
FIG. 3: Administration of a CRF-BP-Fc fusion (SEQ ID NO: 16) delayed the increased in basal serum glucocorticoid levels (“CORT” in pg/mL×1000), resulting from repeated stress. Repeated delivery of footshock to mice (dotted vertical lines indicate times for delivery of footshock) results in elevated baseline serum corticosterone (CORT) level in C57B16 mice (black circles), indicative of a chronic stress state. A single administration of CRF-BP-Fc fusion protein at a dose of 45 μg/mouse delayed such increase of baseline serum CORT (black squares). O=vehicle-treated mice; 45=CRF-BP-Fc-treated mice at 45 μg/mouse; *=p<0.05 from […]; CORT: plasma corticosterone levels (ng/ml).
CRFBP-Fc fusion protein was administered to C57B16 mice at a dose of 300 μg/mouse. Data points represent CORT concentration before and after injection of CRFBP-Fc containing IgG2-derived Fc (drug) and at 3 time points preceding repeated footshocks (FS). […] 3 hr after injection compared to vehicle group (**p<0.01, Fisher's LSD).
Stimulated CORT concentrations after injection of CRFBP-Fc containing IgG2-derived Fc and at 3 time points after repeated footshocks (FS). […] 3 hr after injection, FS1, and FS2 compared to vehicle group, respectively (*p<0.05, ****p<0.0001, Fisher's LSD). […]

A short description of data set [1]: Single-dose serum pharmacokinetics of CRF-BP-Fc in mice (sandwich ELISA). The format is in vivo, mouse. Particulars: two doses (15 and 45 μg) in mice. Here is the method: (§1) FIG. 2A and FIG. 2B: Serum concentration of CRF-BP-Fc. FIG. 2A: A CRF-BP-Fc fusion protein (SEQ ID NO:16), composed of CRF-BP (25-322) fused to mouse IgG1 Fc was administered to C57B16 mice at 2 doses (15 μg/mouse and 45 μg/mouse). […] FIG. 2B: Freezing in response to mild footshock, a mouse model of stress, was reduced in mice treated with the CRF-BP-Fc fusion protein on the day of treatment (*<0.05 from vehicle-treated mice).
Mice are bled at 1, 6, and 12 hours and at 1, 2, 4, 6, 8, and 12 days post-injection by retro-orbital bleeding. […] The present blood sampling times presuppose a half-life value closer to those reported for human IgG in the mouse.
Concentrations in sera over time of CRF-BP-Fc or CRF-BP-albumin constructs are measured with a sandwich ELISA, which has already been established with a lower limit of detection of 1 ng/ml in serum. This ELISA assay consists of immobilized biotinylated CRF to capture serum CRF-BP-Fc on avidin plates followed by detection with a commercial anti-Fc antibody. This assay is used to monitor the serum concentration of CRF-BP-Fc in preliminary studies. CRF-BP-albumin constructs are detected with the same design using antibodies to albumin and blocking reagents designed for albumin ELISA quantification (e.g., Serum Albumin Sandwich ELISA Kit from LifeSpan BioSciences). […]

In the next data set the test system is C57BL/6J mice. Kind of data set: Shock-induced freezing test (mild footshock stress model). It is filed as in vivo, mouse. Here is the method:
as §1
SIF is a defensive behavior observed in response to fearful stimuli exposure (163), and it is used to determine the efficacy of the constructs under study (FIG. 1B). Testing takes place in a Mouse NIR Video Fear Conditioning System (Med Associates, St. Albans, Vt.) housed in soundproof boxes. The session consists of a 2-min habituation period followed by three 1.5 mA footshocks lasting 1 sec and separated by 20 sec. Duration of freezing behavior is measured for 15 min. Freezing behavior, i.e., the absence of all voluntary movements except breathing, is measured in all sessions by real-time digital video recordings calibrated to distinguish between subtle movements such as whisker twitch or tail flick and freezing behavior. This test is performed at days 1 and 4 after administration. Before and after footshock, mice are bled as outlined above for determination of serum corticosterone and compound levels. […]

In another data set the target is T1, CRF (Homo sapiens, UniProt P06850).
T1 construct: Biotinylated CRF was immobilized on an avidin-coated ELISA plate
T1 sequence (P06850 154-194 limits assumed): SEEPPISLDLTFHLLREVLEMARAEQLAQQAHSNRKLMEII
Kind of data set: CRF binding ELISA (biotinylated CRF on avidin-coated plate). The conditions noted are these: data not shown. The source says:
Biotinylated CRF was immobilized on an avidin-coated ELISA plate. […] OD=optical density.

B1: CRF-BP-Fc (SEQ ID NO:16): fusion protein composed of CRF-BP (25-322) fused to mouse IgG1 Fc (protein, listed as Mus musculus)
chain: MSPNFKLQCHFILIFLTALRGESRYLELREAADYDPFLLFSANLKRELAGEQPYRRALRCLDMLSLQGQFTFTADRPQLHCAAFFISEPEEFITIHYDQVSIDCQGGDFLKVFDGWILKGEKFPSSQDHPLPSAERYIDFCESGLSRRSIRSSQNVAMIFFRVHEPGNGFTLTIKTDPNLFPCNVISQTPNGKFTLVVPHQHRNCSFSIIYPVVIKISDLTLGHVNGLQLKKSSAGCEGIGDFVELLGGTGLDPSKMTPLADLCYPFHGPAQMKVGCDNTVVRMVSSGKHVNRVTFEYRQLEPYELENPNGNSIGEFCLSGLTGGCKPCICTVPEVSSVFIFPPKPKDVLTITLTPKVTCVVVDISKDDPEVQFSWFVDDVEVHTAQTQPREEQFNSTFRSVSELPIMHQDWLNGKEFKCRVNSAAFPAPIEKTISKTKGRPKAPQVYTIPPPKEQMAKDKVSLTCMITDFFPEDITVEWQWNGQPAENYKNTQPIMDTDGSYFVYSKLNVQKSNWEAGNTFTCSVLHEGLHNHHTEKSLSHSPGK
Take B1: the “increase in basal serum glucocorticoid (CORT) levels resulting from repeated stress” value in the data set on corticosterone (CORT) is “delayed”. For the same molecule, the “pharmacokinetic profile from serum concentrations” value in data set [1] was “linear pharmacokinetics with a biexponential profile”. For the same molecule, in the data set on C57BL/6J mice (mice), the “circulating serum concentrations effective in reducing behavioral responses to stress” value fell in the range of 1 to 3 µg/mL. Besides, in the data set on C57BL/6J mice (single administration, day of treatment, vs vehicle-treated mice), the “freezing in response to mild footshock” value is reported as “reduced”. In addition, in the data set with CRF, the “effect of fusion to mouse IgG1 Fc on CRF binding” value was “did not alter CRF binding”.

Source of the values: US20190382462A1, “METHODS AND COMPOSITIONS FOR TREATING HPA HYPERACTIVITY” (priority 2017, published 2019).
